Test results taken from patent US20120264815, “REVERSIBLE PLATELET INHIBITION” (DUKE UNIVERSITY, published 2012).

Legend:
[1] = molecular target: T1, von Willebrand factor (VWF) (Homo sapiens, UniProt P04275 P04275:764-2813); assay: filter; buffer F, 150 mM NaCl, 2 mM CaCl2, 37 C; Bmax 61%; settings: tags: Haematologic Technologies Inc. (factor VIII free); label: 5'-32P
Procedure: Dissociation constants (Kd) of each truncate were determined using double-filter nitrocellulose filter binding assays (Pergolizzi et al, Blood 108:862-869 (2006)). All binding studies were performed in binding buffer F (20 mM HEPES, pH 7.4, 150 mM NaCl, 2 mM CaCl₂, and 0.1% BSA) at 37° C. Human purified VWF (with factor VIII and factor VIII free) was purchased from Haematologic Technologies Inc. (Essex Junction, VT) and used in the double-filter nitrocellulose filter binding assay to determine the Kd of individual clones. Briefly, RNA was dephosphorylated using bacterial alkaline phosphatase (Gibco BRL, Gaithberg, Md.) and end-labeled at the 5′ end with T4 polynucleotide kinase (New England Biolabs, Beverly, Mass.) and [γ³²P] ATP (Amersham Pharmacia Biotech, Piscataway, N.J.). Direct binding was performed by incubating ³²P—RNA with VWF in physiological buffer+1 mg/ml BSA at 37° C. for 5 min. The fraction of the nucleic acid-protein complex which bound to the nitrocellulose membrane was quantified with a phosphoimager (Molecular Dynamics, Sunnyvale, Calif.).

[2] = molecular target: T2, glycoprotein IIb/IIIa on activated platelets (Homo sapiens, UniProt P08514;P08514;P05106 P08514:32-887,P08514:891-1039,P05106:27-788); assay: filter; apparent Kd on activated platelets, poorest binder; settings: label: 5'-32P
Procedure: (§1) In order to correlate the real-time data with binding affinity, purified 11D platelets were isolated and the affinity of each round to activated platelets was measured using nitrocellulose-filter partitioning (Wang et al, Biochemistry 32:1899-1904 (1993)). Since purified gpIIb/IIIa were selected, 80,000 gpIIb/IIIa receptors per platelet were assumed (Tcheng, Am. Heart J. 139:S38-45 (2000)) and the theoretical concentration of the protein was calculated.
(§2) Representative clones from each family were subsequently tested for their ability to bind to purified platelets.

[3] = molecular target: T2, glycoprotein IIb/IIIa on activated …; assay: filter; apparent Kd on activated platelets, 37 C; settings: label: 5'-32P
Procedure: as §1, §2

[4] = molecular target: T1, von Willebrand factor (VWF); assay: filter; nitrocellulose filter binding, 37 C, 2 mM CaCl2; settings: tags: Haematologic Technologies Inc. (factor VIII free); label: 5'-32P
Procedure: (§3) Affinity constants (Kd values) were determined using double-filter nitrocellulose filter binding assays (Rusconi et al, Thromb. Haemost. 84:841-848 (2000)). All binding studies were performed in either binding buffer E (20 mM HEPES, pH 7.4, 50 mM NaCl, 2 mM CaCl₂, and 0.1% BSA) or binding buffer F (20 mM HEPES, pH 7.4, 150 mM NaCl, 2 mM CaCl₂, and 0.1% BSA) at 37° C. Human purified VWF (factor VIII free) was purchased from Haematologic Technologies Inc. (Essex Junction, VT) and used in the double-filter nitrocellulose filter binding assay to determine the Kd of every other round and individual clones. VWF SPI and VWF SPIII domains were kindly provided by Dr. J. Evan Sadler (Washington University in St. Louis). Briefly, RNA were dephosphorylated using bacterial alkaline phosphatase (Gibco BRL, Gaithberg, Md.) and end-labeled at the 5′ end with T4 polynucleotide kinase (New England Biolabs, Beverly, Mass.) and [γ³²P] ATP (Amersham Pharmacia Biotech, Piscataway, N.J.) (Fitzwater and Polisky, Methods Enzymol. 267:275-301 (1996)). Direct binding was performed by incubating ³²P-RNA with VWF in physiological buffer+1 mg/ml BSA at 37° C. for 5 min. The fraction of the nucleic acid-protein complex which bound to the nitrocellulose membrane was quantified with a posphoimager (Molecular Dynamics, Sunnyvale, Calif.).

[5] = molecular target: VWF SPI fragment (V8 protease; C-terminal 455 residues of SPIII) (UniProt P04275 P04275:1674-2128); assay: filter; 37 C, 2 mM CaCl2; settings: label: 5'-32P
Procedure: as §3

B1: 9.14 T10 (ssRNA)
RNA: GGGAGGUGGACGAACUGCCCUCAGCUACUUUCAUGUUGCUGACGCACAGACGACUCGCUG
modifications: 2'-F pyrimidines
Kd [1]: 44 nM

B2: C3 (ssRNA)
RNA: GGGAGGACGAUGCGGUGCCACAUGCCUCAGAUACAGCACGCACCUUCGACCUAAUCAGACGACUCGCUGAGGAUCC
modifications: 2'-F pyrimidines
Kd [2]: 62 nM

B3: C1 (ssRNA)
RNA: GGGAGGACGAUGCGGUAUAGACCACAGCCUGAGUAUUAACCACCAACCCAGGUACUCAGACGACUCGCUGAGGAUCC
modifications: 2'-F pyrimidines
Kd [3]: 6 nM

B4: VWF R9.14 (ssRNA)
RNA: GGGAGGACGAUGCGGUGGACGAACUGCCCUCAGCUACUUUCAUGUUGCUGACGCACAGACGACUCGCUGAGGAUCCGAGA
modifications: 2'-F pyrimidines
Kd [4]: 12 nM | binding result [5]: no binding
